Test results reported in patent US20260242735A1 (UNIVERSIT T BASEL, published 2026).
One block for each binder: values may come before it.

What was measured:
human CD33 L134F = human CD33 L134F (human, UniProt P20138 18-364); test: flow cytometry, transfected cells, IgG;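 note: CD33 point mutants transiently expressed in HEK293-T cells, antibody binding read by fluorescence, background subtracted and normalized to wild-type CD33 as 100%, duplicates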
Description: (§1) An alanine scan on human CD33 was performed to the determine the residues on CD33 that are involved in binding to the antibodies investigated. […] Briefly, a mutation library of CD33 was created by high-throughput, site-directed mutagenesis. Each residue was individually mutated to alanine, with alanine codons mutated to serine. The mutant library was arrayed in 384-well microplates and transiently transfected into HEK293-T. Following transfection, cells were incubated with the indicated antibodies (IgG or Fab) at concentrations pre-determined using an independent immunofluorescence titration curve on wild type CD33. […] Binding of each antibody to each mutant clone was determined in duplicates. For each point, background fluorescence was subtracted from the raw data, which were then normalized to antibody reactivity with wild type CD33.
(§2) Antibodies were screened for binding to the human CD33 variants in IgG format. […] For each mutation, background fluorescence was subtracted from the raw data, which were then normalized to antibody reactivity with wild-type CD33.

human CD33 K52E = human CD33 K52E (human, UniProt P20138 18-364); test: flow cytometry, transfected cells, IgG;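 note: CD33 point mutants transiently expressed in HEK293-T cells, antibody binding read by fluorescence, background subtracted and normalized to wild-type CD33 as 100%, duplicates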
Description: as §1, §2

human CD33 R122E = human CD33 R122E (human, UniProt P20138 18-364); test: flow cytometry, transfected cells, IgG;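 note: CD33 point mutants transiently expressed in HEK293-T cells, antibody binding read by fluorescence, background subtracted and normalized to wild-type CD33 as 100%, duplicates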
Description: as §1, §2

human CD33 P132Y = human CD33 P132Y (human, UniProt P20138 18-364); test: flow cytometry, transfected cells, IgG;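 note: CD33 point mutants transiently expressed in HEK293-T cells, antibody binding read by fluorescence, background subtracted and normalized to wild-type CD33 as 100%, duplicates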
Description: as §1, §2

human CD33 M120L = human CD33 M120L (human, UniProt P20138 18-364); test: flow cytometry, transfected cells, IgG
Description: as §1, §2

human CD33 K52G = human CD33 K52G (human, UniProt P20138 18-364); test: flow cytometry, transfected cells, IgG
Description: as §1, §2

human CD33 K52S = human CD33 K52S (human, UniProt P20138 18-364); test: flow cytometry, transfected cells, IgG
Description: as §1, §2

human CD33 K52T = human CD33 K52T (human, UniProt P20138 18-364); test: flow cytometry, transfected cells, IgG
Description: as §1, §2

human CD33 Y127H = human CD33 Y127H (human, UniProt P20138 18-364); test: flow cytometry, transfected cells, IgG
Description: as §1, §2

human CD33 S131H = human CD33 S131H (human, UniProt P20138 18-364); test: flow cytometry, transfected cells, IgG
Description: as §1, §2

human CD33 M120I = human CD33 M120I (human, UniProt P20138 18-364); test: flow cytometry, transfected cells, IgG
Description: as §1, §2

human CD33 P132Q = human CD33 P132Q (human, UniProt P20138 18-364); test: flow cytometry, transfected cells, IgG
Description: as §1, §2

human CD33 R122I = human CD33 R122I (human, UniProt P20138 18-364); test: flow cytometry, transfected cells, IgG
Description: as §1, §2

human CD33 P132F = human CD33 P132F (human, UniProt P20138 18-364); test: flow cytometry, transfected cells, IgG
Description: as §1, §2

human CD33 K52H = human CD33 K52H (human, UniProt P20138 18-364); test: flow cytometry, transfected cells, IgG
Description: as §1, §2

human CD33 Y127E = human CD33 Y127E (human, UniProt P20138 18-364); test: flow cytometry, transfected cells, IgG
Description: as §1, §2

human CD33 D51Y = human CD33 D51Y (human, UniProt P20138 18-364); test: flow cytometry, transfected cells, IgG
Description: as §1, §2

human CD33 P132H = human CD33 P132H (human, UniProt P20138 18-364); test: flow cytometry, transfected cells, IgG
Description: as §1, §2

human CD33 P132N = human CD33 P132N (human, UniProt P20138 18-364); test: flow cytometry, transfected cells, IgG
Description: as §1, §2

human CD33 F21L = human CD33 F21L (human, UniProt P20138 18-364); test: flow cytometry, mutant on cells, IgG
Chain of human CD33 F21L (P20138 18-364 F21L limits assumed): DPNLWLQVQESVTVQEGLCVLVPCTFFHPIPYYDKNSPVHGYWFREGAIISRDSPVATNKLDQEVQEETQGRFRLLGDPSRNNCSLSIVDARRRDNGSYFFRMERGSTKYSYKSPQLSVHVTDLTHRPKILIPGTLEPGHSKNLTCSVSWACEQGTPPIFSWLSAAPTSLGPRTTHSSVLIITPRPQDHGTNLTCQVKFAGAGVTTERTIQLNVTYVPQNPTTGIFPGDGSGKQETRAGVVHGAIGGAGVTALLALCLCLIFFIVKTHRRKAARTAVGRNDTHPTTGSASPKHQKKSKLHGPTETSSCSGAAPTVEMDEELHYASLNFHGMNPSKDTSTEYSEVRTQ
Description: as §1, §2

human CD33 F21I = human CD33 F21I (human, UniProt P20138 18-364); test: flow cytometry, mutant on cells, IgG
Description: as §1, §2

human CD33 Q24E = human CD33 Q24E (human, UniProt P20138 18-364); test: flow cytometry, mutant on cells, IgG
Description: as §1, §2

human CD33 L23M = human CD33 L23M (human, UniProt P20138 18-364); test: flow cytometry, mutant on cells, IgG
Chain of human CD33 L23M (P20138 18-364 L23M limits assumed): as the sequence (P20138 18-364 F21L limits assumed) above, with L4F, L6M counted along it
Description: as §1, §2

human CD33 W22Q = human CD33 W22Q (human, UniProt P20138 18-364); test: flow cytometry, mutant on cells, IgG
Chain of human CD33 W22Q (P20138 18-364 W22Q limits assumed): as the sequence (P20138 18-364 F21L limits assumed) above, with L4F, W5Q counted along it
Description: as §1, §2

human CD33 F44S = human CD33 F44S (human, UniProt P20138 18-364); test: flow cytometry, mutant on cells, IgG
Chain of human CD33 F44S (P20138 18-364 F44S limits assumed): as the sequence (P20138 18-364 F21L limits assumed) above, with L4F, F27S counted along it
Description: as §1, §2

human CD33 F44H = human CD33 F44H (human, UniProt P20138 18-364); test: flow cytometry, mutant on cells, IgG
Description: as §1, §2

human CD33 Q24V = human CD33 Q24V (human, UniProt P20138 18-364); test: flow cytometry, mutant on cells, IgG
Chain of human CD33 Q24V (P20138 18-364 Q24V limits assumed): as the sequence (P20138 18-364 F21L limits assumed) above, with L4F, Q7V counted along it
Description: as §1, §2

human CD33 F43V = human CD33 F43V (human, UniProt P20138 18-364); test: flow cytometry, mutant on cells, IgG
Description: as §1, §2

human CD33 P19L = human CD33 P19L (human, UniProt P20138 18-364); test: flow cytometry, mutant on cells, IgG
Chain of human CD33 P19L (P20138 18-364 P19L limits assumed): as the sequence (P20138 18-364 F21L limits assumed) above, with P2L, L4F counted along it
Description: as §1, §2

human CD33 D18R = human CD33 D18R (human, UniProt P20138 19-364); test: flow cytometry, mutant on cells, IgG
Chain of human CD33 D18R (P20138 18-364 D18R limits assumed): as the sequence (P20138 18-364 F21L limits assumed) above, with D1R, L4F counted along it
Description: as §1, §2

human CD33 Q24N = human CD33 Q24N (human, UniProt P20138 18-364); test: flow cytometry, mutant on cells, IgG
Chain of human CD33 Q24N (P20138 18-364 Q24N limits assumed): as the sequence (P20138 18-364 F21L limits assumed) above, with L4F, Q7N counted along it
Description: as §1, §2

human CD33 N20Q = human CD33 N20Q (human, UniProt P20138 18-364); test: flow cytometry, mutant on cells, IgG
Chain of human CD33 N20Q (P20138 18-364 N20Q limits assumed): as the sequence (P20138 18-364 F21L limits assumed) above, with N3Q, L4F counted along it
Description: as §1, §2

human CD33 V25M = human CD33 V25M (human, UniProt P20138 18-364); test: flow cytometry, mutant on cells, IgG
Chain of human CD33 V25M (P20138 18-364 V25M limits assumed): as the sequence (P20138 18-364 F21L limits assumed) above, with L4F, V8M counted along it
Description: as §1, §2

human CD33 W22R = human CD33 W22R (human, UniProt P20138 18-364); test: flow cytometry, mutant on cells, IgG
Description: as §1, §2

human CD33 P46D = human CD33 P46D (human, UniProt P20138 18-364); test: flow cytometry, mutant on cells, IgG
Chain of human CD33 P46D (P20138 18-364 P46D limits assumed): as the sequence (P20138 18-364 F21L limits assumed) above, with L4F, P29D counted along it
Description: as §1, §2

human CD33 N20P = human CD33 N20P (human, UniProt P20138 18-364); test: flow cytometry, mutant on cells, IgG
Chain of human CD33 N20P (P20138 18-364 N20P limits assumed): as the sequence (P20138 18-364 F21L limits assumed) above, with N3P, L4F counted along it
Description: as §1, §2

human CD33 F44Q = human CD33 F44Q (human, UniProt P20138 18-364); test: flow cytometry, mutant on cells, IgG
Chain of human CD33 F44Q (P20138 18-364 F44Q limits assumed): as the sequence (P20138 18-364 F21L limits assumed) above, with L4F, F27Q counted along it
Description: as §1, §2

human CD33 Q24S = human CD33 Q24S (human, UniProt P20138 18-364); test: flow cytometry, mutant on cells, IgG
Chain of human CD33 Q24S (P20138 18-364 Q24S limits assumed): as the sequence (P20138 18-364 F21L limits assumed) above, with L4F, Q7S counted along it
Description: as §1, §2

Mean % WT Binding (human CD33 L134F): 102% | Mean % WT Binding (human CD33 K52E): 13.8% | Mean % WT Binding (human CD33 R122E): 95.8% | Mean % WT Binding (human CD33 P132Y): 84.3% | Mean % WT Binding (human CD33 M120L): 103% | Mean % WT Binding (human CD33 K52G): 2.6% | Mean % WT Binding (human CD33 K52S): 3.8% | Mean % WT Binding (human CD33 K52T): 5% | Mean % WT Binding (human CD33 Y127H): 97.2% | Mean % WT Binding (human CD33 S131H): 96.8% | Mean % WT Binding (human CD33 M120I): 93% | Mean % WT Binding (human CD33 P132Q): 88.4% | Mean % WT Binding (human CD33 R122I): 86.1% | Mean % WT Binding (human CD33 P132F): 68.5% | Mean % WT Binding (human CD33 K52H): 59.7% | Mean % WT Binding (human CD33 Y127E): 93.9% | Mean % WT Binding (human CD33 D51Y): 57.1% | Mean % WT Binding (human CD33 P132H): 88.2% | Mean % WT Binding (human CD33 P132N): 101%
B1: Refmab #5 (antibody, human IgG1, V domains shown)
VH: QVQLVQSGAEVKKPGASVKVSCKASGYTFTNYDINWVRQAPGQGLEWIGWIYPGDGSTKYNEKFKAKATLTADTSTSTAYMELRSLRSDDTAVYYCASGYEDAMDYWGQGTTVTVSS
VL: DIQMTQSPSSLSASVGDRVTINCKASQDINSYLSWFQQKPGKAPKTLIYRANRLVDGVPSRFSGSGSGQDYTLTISSLQPEDFATYYCLQYDEFPLTFGGGTKVEIK

Mean % WT Binding (human CD33 F21L): 120 % WT binding | Mean % WT Binding (human CD33 F21I): 86.8 % WT binding | Mean % WT Binding (human CD33 Q24E): 63.7 % WT binding | Mean % WT Binding (human CD33 L23M): 107 % WT binding | Mean % WT Binding (human CD33 W22Q): 108 % WT binding | Mean % WT Binding (human CD33 F44S): 0.8 % WT binding | Mean % WT Binding (human CD33 F44H): 0.4 % WT binding | Mean % WT Binding (human CD33 Q24V): 99.3 % WT binding | Mean % WT Binding (human CD33 F43V): 24.5 % WT binding | Mean % WT Binding (human CD33 P19L): 111 % WT binding | Mean % WT Binding (human CD33 D18R): 96.5 % WT binding | Mean % WT Binding (human CD33 Q24N): 117 % WT binding | Mean % WT Binding (human CD33 N20Q): 125 % WT binding | Mean % WT Binding (human CD33 V25M): 83 % WT binding | Mean % WT Binding (human CD33 W22R): 115 % WT binding | Mean % WT Binding (human CD33 P46D): 100 % WT binding | Mean % WT Binding (human CD33 N20P): 98.5 % WT binding | Mean % WT Binding (human CD33 F44Q): 0.5 % WT binding | Mean % WT Binding (human CD33 Q24S): 108 % WT binding
B2: Refmab #2 (antibody, human IgG1, V domains shown)
VH: QVQLVQSGAEVKKPGSSVKVSCKASGGTFSDYAISWVRQAPGQGLEWMGRIIPILGVADYAQKFQGRVTITADKSTRTAYMELSSLRSEDTAVYYCARNWADAFDIWGQGTMVTVSS
VL: DIQLTQSPSSLSASVGDRVTITCRASQGISSVLAWYQQKPGKAPKLLIYDASSLESGVPSRFSGSGSGTDFTLTISSLQPEDFATYYCQQFDSSITFGQGTKLEIK
notes: Tested in IgG format; human IgG1 Fc silent (PG-LALA)

Mean % WT Binding (human CD33 F21L): 4.7 % WT binding | Mean % WT Binding (human CD33 F21I): 1.9 % WT binding | Mean % WT Binding (human CD33 Q24E): 17.1 % WT binding | Mean % WT Binding (human CD33 L23M): 94.4 % WT binding | Mean % WT Binding (human CD33 W22Q): 99.5 % WT binding | Mean % WT Binding (human CD33 F44S): 79.8 % WT binding | Mean % WT Binding (human CD33 F44H): 97.6 % WT binding | Mean % WT Binding (human CD33 Q24V): 92.6 % WT binding | Mean % WT Binding (human CD33 F43V): 101 % WT binding | Mean % WT Binding (human CD33 P19L): 91.6 % WT binding | Mean % WT Binding (human CD33 D18R): 60.6 % WT binding | Mean % WT Binding (human CD33 Q24N): 86.5 % WT binding | Mean % WT Binding (human CD33 N20Q): 2.8 % WT binding | Mean % WT Binding (human CD33 V25M): 97.3 % WT binding | Mean % WT Binding (human CD33 W22R): 7.4 % WT binding | Mean % WT Binding (human CD33 P46D): 0.6 % WT binding | Mean % WT Binding (human CD33 N20P): 2.9 % WT binding | Mean % WT Binding (human CD33 F44Q): 106 % WT binding | Mean % WT Binding (human CD33 Q24S): 60.2 % WT binding
B3: Refmab #1 (antibody, human IgG1, V domains shown)
VH: EVQLVQSGAEVKKPGSSVKVSCKASGYTITDSNIHWVRQAPGQSLEWIGYIYPYNGGTDYNQKFKNRATLTVDNPTNTAYMELSSLRSEDTAFYYCVNGNPWLAYWGQGTLVTVSS
VL: DIQLTQSPSTLSASVGDRVTITCRASESLDNYGIRFLTWFQQKPGKAPKLLMYAASNQGSGVPSRFSGSGSGTEFTLTISSLQPDDFATYYCQQTKEVPWSFGQGTKVEVK
notes: Tested in IgG format; human IgG1 (Absolute Antibody hP67.6, Cat. No. Ab00283-10.0); also called hP67.6
